Experimental data reported in patent US9896489B2, “Family of synthetic polynucleotide-binding peptides and uses thereof” (Eastern Virginia Medical School, priority 2012, dated 2018).

Columns and labels:
SCLC cells = assay: Growth of SCLC cell lines treated with TZIP peptide; format: cell-based
Method: (§1) The peptide was tested against SCLC cells in culture. The cell lines included H82, H146, and controls. The H82 cell line has amplified c-MYC genes and H146 has increased levels of expression of c-MYC. The controls were normal epithelial cells and HeLa cells (a cervical cancer cell line with no known changes in c-MYC).

[1] = test system: human prostate cancer cell lines; assay: Growth of prostate cancer cells treated with TZIP peptide; format: cell-based
[2] = test system: ALS ssDNA (GGGGCC hexanucleotide repeat expanded at C9ORF72); assay: Electrophoretic mobility shift assay with ALS ssDNA; format: binding
Method: Infrared oligonucleotides representing a GGGGCC hexanucleotide repeat expanded at C9ORF72 in ALS patients were custom ordered and are referred to as ALS ssDNA. 4% polyacrylamide gel electrophoresis was performed using IR-labeled oligonucleotides and imaged using the Li-Cor Odyssey IR imaging instrumentation and software.
Electrophoretic Mobility Shift Assay-Various combinations of Purα, Purβ, TZIP, and IR-labeled oligonucleotides were prepared in the 5× Johnson binding buffer (Bergemann, Andrew D and Johnson, Edward M (1992), The HeLa Pur Factor Binds Single-Stranded DNA at a Specific Element Conserved in Gene Flanking Regions and Origins of DNA Replication. Molecular and Cellular Biology, vol 12:3 (1257-1265), incorporated by reference herein in its entirety), adjusted to 5 mM DTT, 5 mM EDTA, and 0.5% Tween 20. 4% polyacrylamide gel electrophoresis was performed on samples and imaged with the Li-Cor Odyssey instrumentation and software. Densitometry was performed on the DNA concentration course experiments using the Li-Cor Odyssey software.
A Kd value obtained for Purβ was complex and not readily interpretable.

KG-1C cells = format: cell-based
[3] = test system: FXS ssDNA (G-rich trinucleotide DNA repeats at FMR1); assay: Electrophoretic mobility shift assay with FXS ssDNA; format: binding
Description: A GE Microspin GST purification module was used to purify GST-tagged Purα and Purβ from bacterial lysate. Polyacrylamide gel electrophoresis with SDS-Page gels and molecular markers were used to verify that GST, Purα, and Purβ were expressed and purified. Expressed proteins were detected using antibodies against Purα and Purβ, including monoclonal mouse anti-Pur antibody developed in Johnson laboratory (clone 10B12) and polyclonal antibody against Purβ (Abcam). Polyacrylamide gel electrophoresis with TBE buffer was used for gel-mobility shift assay. Infrared-labeled oligonucleotides representing G-rich trinucleotide DNA repeats at FMR1 in patients with Fragile X Syndrome (FXS) were custom ordered and are referred to herein as FXS ssDNA. Infrared-labeled oligonucleotide substrates in agarose and polyacrylamide gels were detected through the use of the Odyssey (LICOR) instrumentation and software. […] When Purα and Purβ are combined (FIG. 17), by increasing the amount of Purβ, the DNA is shifted more to the top of the gel. Therefore, there is more binding of the proteins to the DNA. […] In FIG. 19, TZIP enhances the mobility shift of ssDNA FXS in the presence of Purα.

HeLa cells = assay: HeLa cell growth, hemocytometer cell counts; format: cell-based; details: treated as described for H82 cells
Method: This was expected based on the lack of changes in c-MYC in HeLa cell lines. HeLa cells were grown in suspension and either treated or untreated with the TZIP peptide as described above for the H82 cells. Points were taken at different times post treatment, and cells were counted using a hemocytometer. […] This difference was expected, as HeLa cells differ from SCLC cells in many aspects of tumor suppressor gene products and presence of oncogenes.

[4] = test system: normal human epithelial cells; assay: Growth of normal epithelial cells treated with TZIP peptide; format: cell-based
H82 cells = H82 cells treated with TZIP peptide as for cell counts
Method: Referring to FIG. 7, a subset of H82 cells was treated with the TZIP peptide and the dye trypan blue, which is excluded from live cells. The H82 cells were otherwise treated as previously described and H82 cells used as a control were untreated. The percentages of living cells are represented by solid lines, and the percentages of dead cells are represented by dotted lines.

[5] = test system: Tat transactivation of the HIV-1 LTR; assay: Tat transactivation of HIV-1 LTR-luciferase in U-87 MG cells; format: cell-based; details: peptide added exogenously to the medium; clade B LTR and Tat
Method: The TZIP peptide's effect on Tat's ability to transactivate the HIV-1 LTR was tested. In this experiment, U-87 MG cells were transfected with the clade B HIV-1 LTR coupled to luciferase. They were also transfected to express Tat, clade B. In the absence of Tat transfection there is no luciferase activity. […] The results in FIG. 9B document inhibition of the HIV-1 LTR at low concentrations of peptide, levels which would be acceptable in humans.

U-87 MG cells = format: cell-based
H82 SCLC cells = assay: H82 SCLC cell growth, hemocytometer cell counts; format: cell-based; details: 10^−12 M peptide
Method: as §1
H82 SCLC cells were grown in suspension in small cell culture wells in RPMI medium with 10% fetal bovine serum. At time 0, the TZIP peptide was added to the medium at a final concentration of 10^−12 M. Control cells received no peptide. The TZIP peptide was added as a stock solution of 200 μg in 200 μL of deionized water.

B1: novel synthetic Purα agonist peptide, 89 aa, SEQ ID NO: 1, with cell transport sequence YARAKRRQARRQIR (peptide)
chain: LASTFVTRDNKRYFMDLKENQRGRFMRVSQVGTRGYRNSLTVSYSVAWLEFRTHLCKLIDEYAKLQYARAKRRQARRQIRQQQQQQQEE
inhibitory effect on growth, compared with other cell types (SCLC cells): consistently showed the greatest inhibitory effects
growth inhibition [1]: effective at inhibiting growth of prostate cancer cells
binding of ALS repeat (qualitative) ([2]; DNA concentration courses): strongly bind the ALS repeat in low concentrations
effect of TZIP on Purα binding to ALS ssDNA ([2]; Purα and TZIP mixed): alter the binding activity of Purα
effect of TZIP on Purβ binding to ALS hexanucleotide repeat ([2]; Purβ and TZIP mixed): greatly stimulates binding of Purβ
Kd ([2]; densitometry of DNA concentration course): 0.55 nM
concentration at which TZIP functions cooperatively with Purα to enhance binding to the GGGGCC repeat ([2]; with Purα): less than 1 μM
effects on growth kinetics or morphology (KG-1C cells): did not display any effects on growth kinetics or morphology
binding / mobility shift of ssDNA FXS (qualitative) [3]: tightly binds the FXS trinucleotide expanded repeat
order of binding ssDNA FXS [3]: TZIP>Purα>Purβ
effect of TZIP on Purα binding to ssDNA FXS ([3]; in the presence of Purα): greatly stimulates Purα binding
effect on cell growth (HeLa cells): little effect on the growth of HeLa cells
effect of treatment on normal cells [4]: did not show any significant effects
cell killing (living/dead cells, trypan blue) (H82 cells): killed TZIP-treated H82 cells
inhibition of Tat transactivation (luciferase) [5]: transactivation is inhibited over a broad range of low concentrations
effects on growth kinetics or morphology (U-87 MG cells): did not display any effects on growth kinetics or morphology
growth of treated cells (cell counts) (H82 SCLC cells; after three days): no further growth of the treated cancer cells was evident
growth inhibition (cell counts) (H82 SCLC cells; one day post treatment): inhibitory effects of the peptide were evident
